# Target: T1, soluble human FcRn (heterodimer of FcRn alpha chain and beta2-microglobulin) (human, UniProt P55899 24-297; P61769 21-119)
# T1 construct: Expressed in HEK293H and purified on IgG Sepharose; also called hFcRn
# Test: SPR Biacore T100, antibody captured via protein L, hFcRn analyte, pH 7.0, 25 C;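 note: KD derived from kinetic ka and kd fits of sensorgrams, CM4 sensor chip, sodium phosphate NaCl Tween20 running buffer, buffer-only injection used as reference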
# T1 sequence (P55899 24-297 limits assumed, chain 1 of 2): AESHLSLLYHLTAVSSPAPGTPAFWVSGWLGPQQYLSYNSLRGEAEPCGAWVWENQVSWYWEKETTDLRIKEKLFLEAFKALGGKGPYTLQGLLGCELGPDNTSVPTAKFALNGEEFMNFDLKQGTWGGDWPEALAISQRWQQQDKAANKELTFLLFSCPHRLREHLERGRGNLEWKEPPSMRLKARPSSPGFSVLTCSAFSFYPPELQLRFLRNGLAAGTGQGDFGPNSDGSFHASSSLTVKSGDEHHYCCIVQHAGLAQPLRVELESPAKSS
# T1 sequence (P61769 21-119 limits assumed, chain 2 of 2): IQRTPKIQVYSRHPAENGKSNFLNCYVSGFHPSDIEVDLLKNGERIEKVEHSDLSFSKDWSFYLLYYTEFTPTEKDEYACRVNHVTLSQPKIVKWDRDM
row,Binder,Kd
1,"IgG1-F1126 (antibody, VH3-IgG1 with Fc substitutions (EU numbering) + L(WT)-CK) heavy: QVQLQESGPGLVKPSETLSLTCAVSGHSISHDHAWSWVRQPPGEGLEWIGFISYSGITNYNPSLQGRVTISRDNSKNTLYLQMNSLRAEDTAVYYCARSLARTTAMDYWGEGTLVTVSSASTKGPSVFPLAPSSKSTSGGTAALGCLVKDYFPEPVTVSWNSGALTSGVHTFPAVLQSSGLYSLSSVVTVPSSSLGTQTYICNVNHKPSNTKVDKKVEPKSCDKTHTCPPCPAPELLGGPSVFLFPPKPKDTLYISRTPEVTCVVVDVSHEDPEVKFNWYVDGVEVHNAKTKPREEQYNSTYRVVSVLAVLHQDWLNGKEYKCKVSNKALPAPIEKTISKAKGQPREPQVYTLPPSRDELTKNQVSLTCLVKGFYPSDIAVEWESNGQPENNYKTTPPVLDSDGSFFLYSKLTVDKSRWQQGNVFSCSVMHEALHYHVTQKSLSLSP light: not shown",90 nM
2,"IgG1-F1127 (antibody, VH3-IgG1 with Fc substitutions (EU numbering) + L(WT)-CK) heavy: QVQLQESGPGLVKPSETLSLTCAVSGHSISHDHAWSWVRQPPGEGLEWIGFISYSGITNYNPSLQGRVTISRDNSKNTLYLQMNSLRAEDTAVYYCARSLARTTAMDYWGEGTLVTVSSASTKGPSVFPLAPSSKSTSGGTAALGCLVKDYFPEPVTVSWNSGALTSGVHTFPAVLQSSGLYSLSSVVTVPSSSLGTQTYICNVNHKPSNTKVDKKVEPKSCDKTHTCPPCPAPELLGGPSVFLFPPKPKDTLYISRTPEVTCVVVDVSHEDPEVKFNWYVDGVEVHNAKTKPREEQYNSTYRVVSVLTVLHADWLNGKEYKCKVSNKALPAPIEKTISKAKGQPREPQVYTLPPSRDELTKNQVSLTCLVKGFYPSDIAVEWESNGQPENNYKTTPPVLDSDGSFFLYSKLTVDKSRWQQGNVFSCSVMHEALHYHVTQKSLSLSP light: not shown",79 nM
3,"IgG1-F1129 (antibody, VH3-IgG1 with Fc substitutions (EU numbering) + L(WT)-CK) heavy: QVQLQESGPGLVKPSETLSLTCAVSGHSISHDHAWSWVRQPPGEGLEWIGFISYSGITNYNPSLQGRVTISRDNSKNTLYLQMNSLRAEDTAVYYCARSLARTTAMDYWGEGTLVTVSSASTKGPSVFPLAPSSKSTSGGTAALGCLVKDYFPEPVTVSWNSGALTSGVHTFPAVLQSSGLYSLSSVVTVPSSSLGTQTYICNVNHKPSNTKVDKKVEPKSCDKTHTCPPCPAPELLGGPSVFLFPPKPKDTLYISRTPEVTCVVVDVSHEDPEVKFNWYVDGVEVHNAKTKPREEQYNSTYRVVSVLQVLHHDWLNGKEYKCKVSNKALPAPIEKTISKAKGQPREPQVYTLPPSRDELTKNQVSLTCLVKGFYPSDIAVEWESNGQPENNYKTTPPVLDSDGSFFLYSKLTVDKSRWQQGNVFSCSVMHEALHYHVTQKSLSLSP light: not shown",45 nM
4,"IgG1-F1135 (antibody, VH3-IgG1 with Fc substitutions (EU numbering) + L(WT)-CK) heavy: QVQLQESGPGLVKPSETLSLTCAVSGHSISHDHAWSWVRQPPGEGLEWIGFISYSGITNYNPSLQGRVTISRDNSKNTLYLQMNSLRAEDTAVYYCARSLARTTAMDYWGEGTLVTVSSASTKGPSVFPLAPSSKSTSGGTAALGCLVKDYFPEPVTVSWNSGALTSGVHTFPAVLQSSGLYSLSSVVTVPSSSLGTQTYICNVNHKPSNTKVDKKVEPKSCDKTHTCPPCPAPELRGGPKVFLFPPKPKDTLYISRTPEVTCVVVDVSHEDPEVKFNWYVDGVEVHNAKTKPREEQYNSTYRVVSVLTVLHQDWLNGKEYKCKVSNKALPAPIEKTISKAKGQPREPQVYTLPPSRDELTKNQVSLTCLVKGFYPSDIAVEWESNGQPENNYKTTPPVLDSDGSFFLYSKLTVDKSRWQQGNVFSCSVMHEALHYHVTQKELSLSP light: not shown",130 nM
5,"IgG1-F1131 (antibody, VH3-IgG1 with Fc substitutions (EU numbering) + L(WT)-CK) heavy: QVQLQESGPGLVKPSETLSLTCAVSGHSISHDHAWSWVRQPPGEGLEWIGFISYSGITNYNPSLQGRVTISRDNSKNTLYLQMNSLRAEDTAVYYCARSLARTTAMDYWGEGTLVTVSSASTKGPSVFPLAPSSKSTSGGTAALGCLVKDYFPEPVTVSWNSGALTSGVHTFPAVLQSSGLYSLSSVVTVPSSSLGTQTYICNVNHKPSNTKVDKKVEPKSCDKTHTCPPCPAPELRGGPKVFLFPPKPKDTLYISRTPEVTCVVVDVSHEDPEVKFNWYVDGVEVHNAKTKPREEQYNSTYRVVSVLTVLHQDWLNGKEYKCKVSNKALPAPIEKTISKAKGQPREPQVYTLPPSRDELTKNQVSLTCLVKGFYPSDIAVEWESNGQPENNYKTTPPVLDSDGSFFLYSKLTVDKSRWQQGNEFSCSVMHEALHYHVTQKSLSLSP light: not shown",130 nM
6,"IgG1-F1137 (antibody, VH3-IgG1 with Fc substitutions (EU numbering) + L(WT)-CK) heavy: QVQLQESGPGLVKPSETLSLTCAVSGHSISHDHAWSWVRQPPGEGLEWIGFISYSGITNYNPSLQGRVTISRDNSKNTLYLQMNSLRAEDTAVYYCARSLARTTAMDYWGEGTLVTVSSASTKGPSVFPLAPSSKSTSGGTAALGCLVKDYFPEPVTVSWNSGALTSGVHTFPAVLQSSGLYSLSSVVTVPSSSLGTQTYICNVNHKPSNTKVDKKVEPKSCDKTHTCPPCPAPELRGGPKVFLFPPKPKDTLYISRTPEVTCVVVDVSHEDPEVKFNWYVDGVEVHNAKTKPREEQYNSTYRVVSVLTVLHQDWLNGKEYKCKVSNKALPAPIEKTISKAKGQPREPQVYTLPPSRDELTKNQVSLTCLVKGFYPSDIAVEWESNGQPENNYKTTPPVLDSDGSFFLYSKLTVDKSRWQQGNSFRCSVMHEALHYHVTQKSLSLSP light: not shown",160 nM
7,"IgG1-F1130 (antibody, VH3-IgG1 with Fc substitutions (EU numbering) + L(WT)-CK) heavy: QVQLQESGPGLVKPSETLSLTCAVSGHSISHDHAWSWVRQPPGEGLEWIGFISYSGITNYNPSLQGRVTISRDNSKNTLYLQMNSLRAEDTAVYYCARSLARTTAMDYWGEGTLVTVSSASTKGPSVFPLAPSSKSTSGGTAALGCLVKDYFPEPVTVSWNSGALTSGVHTFPAVLQSSGLYSLSSVVTVPSSSLGTQTYICNVNHKPSNTKVDKKVEPKSCDKTHTCPPCPAPELLGGPSVFLFPPKPKDTLYISRTPEVTCVVVDVSHEDPEVKFNWYVDGVEVHNAKTKPREEQYNSTYRVVSVLAVLHADWLNGKEYKCKVSNKALPAPIEKTISKAKGQPREPQVYTLPPSRDELTKNQVSLTCLVKGFYPSDIAVEWESNGQPENNYKTTPPVLDSDGSFFLYSKLTVDKSRWQQGNVFSCSVMHEALHYHVTQKSLSLSP light: not shown",55 nM
8,"IgG1-F1134 (antibody, VH3-IgG1 with Fc substitutions (EU numbering) + L(WT)-CK) heavy: QVQLQESGPGLVKPSETLSLTCAVSGHSISHDHAWSWVRQPPGEGLEWIGFISYSGITNYNPSLQGRVTISRDNSKNTLYLQMNSLRAEDTAVYYCARSLARTTAMDYWGEGTLVTVSSASTKGPSVFPLAPSSKSTSGGTAALGCLVKDYFPEPVTVSWNSGALTSGVHTFPAVLQSSGLYSLSSVVTVPSSSLGTQTYICNVNHKPSNTKVDKKVEPKSCDKTHTCPPCPAPELRGGPKVFLFPPKPKDTLYISRTPEVTCVVVDVSHEDPEVKFNWYVDGVEVHNAKTKPREEQYNSTYRVVSVLTVLHQDWLNGKEYKCKVSNKALPAPIEKTISKAKGQPREPQVYTLPPSRDELTKNQVSLTCLVKGFYPSDIAVEWESNGQPENNYKTTPPVLDSDGSFFLYSKLTVDKSRWQQGNVFSCSVMHEALHYHVTRKSLSLSP light: not shown",170 nM
9,"IgG1-F1138 (antibody, VH3-IgG1 with Fc substitutions (EU numbering) + L(WT)-CK) heavy: QVQLQESGPGLVKPSETLSLTCAVSGHSISHDHAWSWVRQPPGEGLEWIGFISYSGITNYNPSLQGRVTISRDNSKNTLYLQMNSLRAEDTAVYYCARSLARTTAMDYWGEGTLVTVSSASTKGPSVFPLAPSSKSTSGGTAALGCLVKDYFPEPVTVSWNSGALTSGVHTFPAVLQSSGLYSLSSVVTVPSSSLGTQTYICNVNHKPSNTKVDKKVEPKSCDKTHTCPPCPAPELRGGPKVFLFPPKPKDTLYISRTPEVTCVVVDVSHEDPEVKFNWYVDGVEVHNAKTKPREEQYNSTYRVVSVLTVLHQDWLNGKEYKCKVSNKALPAPIEKTISKAKGQPREPQVYTLPPSRDELTKNQVSLTCLVKGFYPSDIAVEWESNGQPENNYKTTPPVLDSDGSFFLYSKLTVDKSRWQQGNVFSCSVMHEALHYHVTRKELSLSP light: not shown",170 nM
10,"IgG1-F1128 (antibody, VH3-IgG1 with Fc substitutions (EU numbering) + L(WT)-CK) heavy: QVQLQESGPGLVKPSETLSLTCAVSGHSISHDHAWSWVRQPPGEGLEWIGFISYSGITNYNPSLQGRVTISRDNSKNTLYLQMNSLRAEDTAVYYCARSLARTTAMDYWGEGTLVTVSSASTKGPSVFPLAPSSKSTSGGTAALGCLVKDYFPEPVTVSWNSGALTSGVHTFPAVLQSSGLYSLSSVVTVPSSSLGTQTYICNVNHKPSNTKVDKKVEPKSCDKTHTCPPCPAPELLGGPSVFLFPPKPKDTLYISRTPEVTCVVVDVSHEDPEVKFNWYVDGVEVHNAKTKPREEQYNSTYRVVSVLTVLHHDWLNGKEYKCKVSNKALPAPIEKTISKAKGQPREPQVYTLPPSRDELTKNQVSLTCLVKGFYPSDIAVEWESNGQPENNYKTTPPVLDSDGSFFLYSKLTVDKSRWQQGNVFSCSVMHEALHYHVTQKSLSLSP light: not shown",120 nM
11,"IgG1-F1136 (antibody, VH3-IgG1 with Fc substitutions (EU numbering) + L(WT)-CK) heavy: QVQLQESGPGLVKPSETLSLTCAVSGHSISHDHAWSWVRQPPGEGLEWIGFISYSGITNYNPSLQGRVTISRDNSKNTLYLQMNSLRAEDTAVYYCARSLARTTAMDYWGEGTLVTVSSASTKGPSVFPLAPSSKSTSGGTAALGCLVKDYFPEPVTVSWNSGALTSGVHTFPAVLQSSGLYSLSSVVTVPSSSLGTQTYICNVNHKPSNTKVDKKVEPKSCDKTHTCPPCPAPELRGGPKVFLFPPKPKDTLYISRTPEVTCVVVDVSHEDPEVKFNWYVDGVEVHNAKTKPREEQYNSTYRVVSVLTVLHQDWLNGKEYKCKVSNKALPAPIEKTISKAKGQPREPQVYTLPPSRDELTKNQVSLTCLVKGFYPSDIAVEWESNGQPENNYKTTPPVLDSDGSFFLYSKLTVDKSRWQQGNEFRCSVMHEALHYHVTQKSLSLSP light: not shown",160 nM
12,"IgG1-F1133 (antibody, VH3-IgG1 with Fc substitutions (EU numbering) + L(WT)-CK) heavy: QVQLQESGPGLVKPSETLSLTCAVSGHSISHDHAWSWVRQPPGEGLEWIGFISYSGITNYNPSLQGRVTISRDNSKNTLYLQMNSLRAEDTAVYYCARSLARTTAMDYWGEGTLVTVSSASTKGPSVFPLAPSSKSTSGGTAALGCLVKDYFPEPVTVSWNSGALTSGVHTFPAVLQSSGLYSLSSVVTVPSSSLGTQTYICNVNHKPSNTKVDKKVEPKSCDKTHTCPPCPAPELRGGPKVFLFPPKPKDTLYISRTPEVTCVVVDVSHEDPEVKFNWYVDGVEVHNAKTKPREEQYNSTYRVVSVLTVLHQDWLNGKEYKCKVSNKALPAPIEKTISKAKGQPREPQVYTLPPSRDELTKNQVSLTCLVKGFYPSDIAVEWESNGQPENNYKTTPPVLDSDGSFFLYSKLTVDKSRWQQGNVFRCSVMHEALHYHVTQKSLSLSP light: not shown",160 nM

# Source: patent publication US20140363428A1 (Chugai, published 2014)
